The text below walks through data of patent WO2017055393A1.

Assay [1] concerns the target human Tim-3 (T cell Immunoglobulin- and Mucin domain-containing molecule 3) (human) (UniProt Q8TDQ0). Description: FACS, 10 ug/ml PE-labeled antibody on Pfeiffer cells; geom. mean MFI sample / isotype control. (In general: Flow cytometry measures light scatter and fluorescence of single cells or particles in a stream.)
For assay [2] the target is unchanged. Briefly: FACS, 10 ug/ml PE-labeled antibody on EOL-1 cells (24h pre-treated with 10 ng/ml PMA); geom. mean MFI sample minus isotype control.
Assay [3] shares this target. Description: FACS, 10 ug/ml PE-labeled antibody on SR cells; geom. mean MFI sample / isotype control.
The target is the same in assay [4]. Description: FACS, 10 ug/ml PE-labeled antibody on Kasumi-1 cells; geom. mean MFI sample / isotype control.
The target is the same in assay [5]. Description: FACS, 10 ug/ml PE-labeled antibody on TF-1 cells; geom. mean MFI sample minus isotype control.
Assay [6] has the same target. Description: FACS, 10 ug/ml PE-labeled antibody on TF-1 cells; geom. mean MFI sample / isotype control.
The target is the same in assay [7]. Description: FACS, 10 ug/ml PE-labeled antibody on RPMI-8226 cells; geom. mean MFI sample / isotype control.
For assay [8] the target is unchanged. Briefly: FACS, 10 ug/ml PE-labeled antibody on SR cells; geom. mean MFI sample minus isotype control.
The target is the same in assay [9]. Briefly: FACS, 10 ug/ml PE-labeled antibody on KG-1 cells; geom. mean MFI sample / isotype control.
For assay [10] the target is unchanged. Description: FACS, 10 ug/ml PE-labeled antibody on Karpas-299 cells; geom. mean MFI sample minus isotype control.
The target is the same in assay [11]. Description: FACS, 10 ug/ml PE-labeled antibody on CMK cells; geom. mean MFI sample / isotype control.
For assay [12] the target is unchanged. Briefly: FACS, 10 ug/ml PE-labeled antibody on Pfeiffer cells; geom. mean MFI sample minus isotype control.
Assay [13] has the same target. Description: FACS, 10 ug/ml PE-labeled antibody on KG-1 cells; geom. mean MFI sample minus isotype control.
Assay [14] has the same target. Description: FACS, 10 ug/ml PE-labeled antibody on EOL-1 cells (24h pre-treated with 10 ng/ml PMA); geom. mean MFI sample / isotype control.
Assay [15] shares this target. Briefly: FACS, 10 ug/ml PE-labeled antibody on CMK cells; geom. mean MFI sample minus isotype control.
Assay [16] shares this target. Description: FACS, 10 ug/ml PE-labeled antibody on RPMI-8226 cells; geom. mean MFI sample minus isotype control.
The target is the same in assay [17]. Briefly: FACS, 10 ug/ml PE-labeled antibody on Karpas-299 cells; geom. mean MFI sample / isotype control.
Assay [18] has the same target. Description: FACS, 10 ug/ml PE-labeled antibody on Kasumi-1 cells; geom. mean MFI sample minus isotype control.

human Tim-3 (T cell Immunoglobulin- and Mucin domain-containing molecule 3) (human), sequence (Q8TDQ0 22-301): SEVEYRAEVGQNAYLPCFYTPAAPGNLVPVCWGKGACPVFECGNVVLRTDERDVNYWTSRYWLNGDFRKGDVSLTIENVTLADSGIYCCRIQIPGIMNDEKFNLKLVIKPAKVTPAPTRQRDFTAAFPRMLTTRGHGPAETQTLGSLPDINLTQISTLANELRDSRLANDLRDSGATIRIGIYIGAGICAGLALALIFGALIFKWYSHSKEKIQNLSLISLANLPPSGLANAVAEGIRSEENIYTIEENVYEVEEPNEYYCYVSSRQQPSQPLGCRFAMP

Turning to “PE labeled anti-TIM3 (clone 344823, R&D) (antibody)”, the RFI (ratio of specific binding) in assay [1] was found to be 51 RFI; in assay [3], 19 RFI; in [4], 4 RFI; in [6], 3 RFI; in [7], 23 RFI; in assay [9], 5 RFI. Moreover, the RFI (ratio of specific binding) in assay [11] stood at 5 RFI; in assay [14] it was 2 RFI; in [17] it was 3 RFI. For the same substance, the MFI (specific binding) in [2] came to 207 MFI; in [5], 229 MFI; in assay [8], 1050 MFI; in assay [10] it was 247 MFI; in assay [12], 3610 MFI; in assay [13], 363 MFI. In addition, the MFI (specific binding) came to 384 MFI in [15], 1790 MFI in assay [16] and 164 MFI in assay [18].
